According to the supplement of paper PMC12764529:
± gives the half width of the 95% confidence interval.

Assay: folding stability dG unfold from chymotrypsin proteolysis; higher = more stable
Method in brief: (§1)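 Mini-proteins designed to be under 80 residues and free of cysteine were carried in a PA-tagged cDNA display construct and digested with trypsin and with chymotrypsin. Each protease was applied at 11 threefold-diluted concentrations, alongside a no-protease condition, before sequencing. K50 came from Bayesian fitting of the sequencing counts, and unfolding free energy was obtained by comparing it with a sequence-predicted unfolded-state K50 and a shared folded-state K50, for each protease separately or for both together. Designs were retained only if their AlphaFold2 dimer inter-PAE exceeded 15.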

Row | Sequence | folding stability dG unfold
1 | SAGGVLTRVEIEIVEPGTGVPKRFEALLETGDDGTITLLLPDGTVIELPPTANIKILSEEVLSPSELSAGGS [r16_223_JUSTAS] | 0.0233 ± 0.17 kcal/mol
2 | SAGGSAGGSAGEFEILSIETEPPNGRVEIAIRFDDWVVVINFDNPNEPELYPVRPDDGIFSAGGSAGGSAGG [r17_145_TrROS] | 2.24 ± 0.12 kcal/mol
3 | SMTITIERPVPPELTDRPLSLELPLPNGSTVSVKVETSPTTATVTITTNDPSLEAEVKARVEELLARLLASA [r9_790_JUSTAS] | 2.058 ± 0.02 kcal/mol
4 | SAGGSAMPKFYLDENGNPVYELPEEPTINTPLKIGIFDEENNPAIEIEIPGSTPLEEIIQKIKDAASAGGSA [r15_309_TrMRF] | 0.483 ± 0.14 kcal/mol
5 | SAGGSAGGSPRIVRVEVDPPPGGLGLARIEVEVVDPSTGVPRLERRTVPVPLGDWKKLLDFLGSAGGSAGGS [r12_691_TrMRF] | 2.25 ± 0.054 kcal/mol
6 | SAGGSAGGSGSMSIPVGSPEALREYLRERLPPEADLSEEELEALVEELLAKASIDSDGRLHLASAGGSAGGS [r12_983_JUSTAS] | 2.207 ± 0.012 kcal/mol
7 | SAGGSAGGSAGGSDKDPDKMKPKPVFEMEIVTYEWEKDGDGDWEPLSVEVQRIRVYAMDSAGGSAGGSAGGS [r4_288_TrROS] | 4.51 ± 0.23 kcal/mol
8 | SMRVTIMIPVPPGLKNLKLEFKLPYPDGREVDVDIQVDPNYITITVEMNNPGQMDWVQERFQEEIEKLLGSA [r9_790_TrROS] | 4.09 ± 0.15 kcal/mol
9 | SAGGSAGGSAGKNWFFRIKIKYPNGEERTIYIPGTLDEIKEELPGPIKNIDIEPMPAEDMSAGGSAGGSAGG [r11_596_TrROS] | 1.76 ± 0.1 kcal/mol
10 | SAGGSPTIKLEILLPKEMTPEEVEALARELEEAGYEIVSIKVETVKDEDGREWVRVTITLRPKEDLSAGGSA [r2_442_TrROS_Hall] | 3.97 ± 0.045 kcal/mol
11 | SAGGSAGSMSEIEGLTVLEEREEPDPATGTTVPTLVVRDPEKGELYVITATTDPATGKPTYSFDLVSAGGSA [r15_170_JUSTAS] | 0.0106 ± 0.072 kcal/mol
12 | SMVIEPKPDGTVTVTLPSSLPDLPREEVEAIVREALPPGASLGDSITVSRDPETGEVTVTAPVKFPPELASA [r9_1011_JUSTAS] | 0.544 ± 0.025 kcal/mol
13 | SAGGSAGGSAMVIEDPKTNKLIEVEKLPDGTYKVTIYDKKTGEKKTITMSKKDLEKLLKALSAGGSAGGSAG [r3_162_TrROS_Hall] | 4.78 ± 0.14 kcal/mol
14 | SAGGSALADRIKEIARENGFEPESVQFDPGNGHLMISIEPPDGRGVVVQIDIDNNNLKIQIQPLDDSAGGSA [r15_561_TrROS] | 0.792 ± 0.099 kcal/mol
15 | SMYYLVTITVTIRKDGKPVSVTPIYLAVPPEKAEEVAAEIKKSHPDLEVTITMEVTEVSEDDEEVKELLKSA [r9_782_JUSTAS] | 3.36 ± 0.085 kcal/mol
16 | SAGIKEIAKKLGFPIHSVKPTEPDPENGKLKWTVIFRNEKNNYYVIEIDLDDPEKIEIERFPPGEEIPSAGG [r19_72_TrROS] | 1.61 ± 0.12 kcal/mol
17 | SAGGSAGGSKMLLVKVYIEETKEEIVIEVPEGMTLEEIAERLRELGYKIKKIEVYELPPPPEESAGGSAGGS [r12_955_TrROS_Hall] | 4.25 ± 0.078 kcal/mol

Assay: folding stability dG unfold from trypsin proteolysis; higher = more stable
Method in brief: as §1

Row | Sequence | folding stability dG unfold
18 | SAGGVLTRVEIEIVEPGTGVPKRFEALLETGDDGTITLLLPDGTVIELPPTANIKILSEEVLSPSELSAGGS [r16_223_JUSTAS] | 2.02 ± 0.1 kcal/mol
19 | SAGGSAGGSAGEFEILSIETEPPNGRVEIAIRFDDWVVVINFDNPNEPELYPVRPDDGIFSAGGSAGGSAGG [r17_145_TrROS] | 2.54 ± 0.19 kcal/mol
20 | SMTITIERPVPPELTDRPLSLELPLPNGSTVSVKVETSPTTATVTITTNDPSLEAEVKARVEELLARLLASA [r9_790_JUSTAS] | 2.56 ± 0.094 kcal/mol
21 | SAGGSAMPKFYLDENGNPVYELPEEPTINTPLKIGIFDEENNPAIEIEIPGSTPLEEIIQKIKDAASAGGSA [r15_309_TrMRF] | 0.674 ± 0.065 kcal/mol
22 | SAGGSAGGSPRIVRVEVDPPPGGLGLARIEVEVVDPSTGVPRLERRTVPVPLGDWKKLLDFLGSAGGSAGGS [r12_691_TrMRF] | 2.06 ± 0.051 kcal/mol
23 | SAGGSAGGSGSMSIPVGSPEALREYLRERLPPEADLSEEELEALVEELLAKASIDSDGRLHLASAGGSAGGS [r12_983_JUSTAS] | 1.65 ± 0.039 kcal/mol
24 | SAGGSAGGSAGGSDKDPDKMKPKPVFEMEIVTYEWEKDGDGDWEPLSVEVQRIRVYAMDSAGGSAGGSAGGS [r4_288_TrROS] | 3.13 ± 0.14 kcal/mol
25 | SMRVTIMIPVPPGLKNLKLEFKLPYPDGREVDVDIQVDPNYITITVEMNNPGQMDWVQERFQEEIEKLLGSA [r9_790_TrROS] | 3.24 ± 0.1 kcal/mol
